This is an account of results in article PMC9638941, “Molecular basis of dual anti-CRISPR and auto-regulatory functions of AcrIF24” (Nucleic Acids Research, 2022).

Data set [1] concerns the target AcrIF24 R221W. In words: SEC-MALS. The following applies: parent: 55.76. A general note: Size exclusion chromatography separates by hydrodynamic size, large species first.
For data set [2], the target named is P. aeruginosa type I-F Cascade complex (Cas5f1, Cas6f, six copies of Cas7f1, Cas8f1 and a 60 nt crRNA) (UniProt Q02MM2). In words: SEC followed by SDS-PAGE, band intensity quantified. The note with it: parent: est. 100; read off a plot.
In data set [3] the target is AcrIF24 T129W. In words: SEC-MALS. The note with it: parent: 55.76.
Data set [4] concerns the target AcrIF24 Y128K/Y217W double mutant. Description: SEC-MALS. The following applies: parent: 55.76.
Data set [5] deals with the molecule itself. Description: SEC-MALS; Superdex 200 Increase 10/300 GL, SEC buffer (20 mM Tris-HCl pH 8.0, 150 mM NaCl), 0.4 ml/min, 20°C; DAWN-TREOS detector.
The target of data set [6] is T1, AcrIF24 wild type (Pseudomonas aeruginosa prophage, UniProt A0AA82WNY5 1-228).
T1 sequence: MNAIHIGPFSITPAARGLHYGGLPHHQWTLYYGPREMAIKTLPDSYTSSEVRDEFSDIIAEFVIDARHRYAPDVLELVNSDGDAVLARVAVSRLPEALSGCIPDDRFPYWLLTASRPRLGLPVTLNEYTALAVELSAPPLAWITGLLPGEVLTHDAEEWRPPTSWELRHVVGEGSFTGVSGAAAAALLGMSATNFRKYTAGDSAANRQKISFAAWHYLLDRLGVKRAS
Description: EMSA; EMSA-P: 10 mM HEPES pH 7.5, 1 mM MgCl2, 20 mM KCl, 1 mM TCEP, 5% glycerol, 30 min on ice; 10% native 0.5x TBE gel, SYBR Gold; Cascade EMSA buffer not in material. The note with it: protein: recombinant, chain copies: 2, label: none (SYBR Gold stain). Background: Mobility shift assays separate free from complexed probe on a gel.

The target in data set [7] is T1, AcrIF24 wild type. Description: EMSA; concentration-dependent; EMSA-P: 10 mM HEPES pH 7.5, 1 mM MgCl2, 20 mM KCl, 1 mM TCEP, 5% glycerol, 30 min on ice; 10% native 0.5x TBE gel, SYBR Gold; Cascade EMSA buffer not in material. The following applies: protein: recombinant; chain copies: 2; label: none (SYBR Gold stain); blunt.

Changes are numbered by the printed parent chain.

Turning to “AcrIF24 (wildtype, full length, residues 1-228) R221W”, the other: MW (kDa) by SEC-MALS in data set [1] was found to be 52.4 kDa.

Take “AcrIF24 (wildtype, full length, residues 1-228) G189K”: the percent of parent in data set [2] was found to be 88%.

For “AcrIF24 (wildtype, full length, residues 1-228) W110K”, the percent of parent in data set [2] is 11%. On to “AcrIF24 (wildtype, full length, residues 1-228) T129W”, for which the other: MW (kDa) by SEC-MALS in data set [3] is 53.9 kDa. Turning to “AcrIF24 (wildtype, full length, residues 1-228) G22Y”, in data set [2], the percent of parent came to 98%.

Regarding “AcrIF24 (wildtype, full length, residues 1-228) D105K”, in data set [2], the percent of parent was 98%.

With “AcrIF24 (wildtype, full length, residues 1-228) Y128K; Y217W”, in data set [4], the other: MW (kDa) by SEC-MALS came to 39.6 kDa.

B1: AcrIF24 (wildtype, full length, residues 1-228) (natural protein)
chain: T1 sequence
B1: the “stoichiometry N” value in data set [5] was 2.

B2: IR-S half-site mutant (dsDNA)
DNA 1: GCATGATCTTCGAGCTA
DNA 2: TAGCTCGAAGATCATGC
In the case of B2, in data set [6], the binding result is “no binding”.

B3: IR-S (dsDNA)
DNA 1: TAGCTCGATTCGAGCTA
DNA 2: TAGCTCGAATCGAGCTA
With B3, in data set [6] (blunt), the binding result is recorded as “binds”.

B4: IR-L (dsDNA)
DNA 1: CAGAATATCATTGCATAGCTCGATTCGAGCTAATATAGTAATACCAACAGCGCGGCACACCGCCAGCACTGAACCT
DNA 2: AGGTTCAGTGCTGGCGGTGTGCCGCGCTGTTGGTATTACTATATTAGCTCGAATCGAGCTATGCAATGATATTCTG
Consider B4, for which the binding result in data set [7] was “binds”.

B5: IR-L half-site mutant (dsDNA)
DNA 1: B4 DNA 1 with T16G, A17C, G18A, C19T, T20G, C21A, G22T, A23C
DNA 2: B4 DNA 2 with T54G, C55A, G56T, A57C, G58A, C59T, T60G, A61C
Take B5: the binding result in data set [6] is “no binding”.

As usually defined, the stoichiometry N is a count of units in the complex or per binding partner.
